The values below come from article PMC7545742, “A Toolbox for Site-Specific Labeling of RecQ Helicase With a Single Fluorophore Used in the Single-Molecule Assay”.

One data set has as its target wild-type RecQ helicase (Escherichia coli, UniProt P15043 1-609). Briefly: smFRET; EFRET 0.92 to 0.54; bound dwell time 4.47 +/- 0.23 s; smFRET on DNA with biotinylated strand in reaction chamber; 5 nM RecQ-Cy5 bound 2 min, then washed; reaction buffer composition, pH and temperature not in the material. Particulars: protein: recombinant; label: Cy3 3' of strand 1; internal Cy5 after nt 4 and biotin 3' of strand 2; 3' overhang 10 nt, 16 bp stem; one A:G mismatch (strand 1 nt 8).

The target in data set [1] is T1, RecQ-Cy5 (sortase A ligation of RecQ516-LPETG and Cy5-GGG-HRDC) (Escherichia coli, UniProt P15043 1-516+=LPETGGG+524-609+=VD, E609C;internal_change). The data set can be described thus: smFRET; 5 nM RecQ-Cy5, free protein washed off; EFRET 0 to ~0.84; duration 4.65 +/- 0.17 s; HRDC contacts 3' end; smFRET on DNA with biotinylated strand in reaction chamber; 5 nM RecQ-Cy5 bound 2 min, then washed; reaction buffer composition, pH and temperature not in the material. Particulars: protein: recombinant; tags: Cy5-maleimide at C610; label: Cy3 3' of strand 1; biotin 3' of strand 2; 3' overhang 15 nt, 18 bp stem; one A:G mismatch (strand 1 nt 8).

Data set [2] concerns the target T1, RecQ-Cy5 (sortase A ligation of …). The data set can be described thus: smFRET; 5 nM RecQ-Cy5, free protein washed off; EFRET 0 to ~0.5; duration 5.17 +/- 0.82 s; smFRET on DNA with biotinylated strand in reaction chamber; 5 nM RecQ-Cy5 bound 2 min, then washed; reaction buffer composition, pH and temperature not in the material. Particulars: protein: recombinant; tags: Cy5-maleimide at C610; label: Cy3 3' of strand 1; biotin 3' of strand 2; 3' overhang 10 nt, 18 bp stem; one A:G mismatch (strand 1 nt 8).

For data set [3] the target is unchanged. Briefly: smFRET; RecQ-Cy5, same conditions (5 nM); EFRET 0 to ~0.92; duration 5.19 +/- 0.28 s; HRDC contacts 5' end; smFRET on DNA with biotinylated strand in reaction chamber; 5 nM RecQ-Cy5 bound 2 min, then washed; reaction buffer composition, pH and temperature not in the material. Particulars: protein: recombinant; tags: Cy5-maleimide at C610; label: Cy3 5' of strand 1; biotin 5' of strand 2; fork 1:2, 17 bp stem, 5' arm 7 nt (strand 1), 3' arm 10 nt (strand 2).

B1: 16 bp with 3' 10-nt overhang, Cy3/Cy5 (mixed)
DNA 1: AATCCGTAGAGCAGAGGTGTGTGTGG
DNA 2: CTCTGCTCGACGGATT
modifications: none
With B1, the binding result in the data set with wild-type RecQ helicase is “binds”.

B2: 3' 15-nt overhang DNA, Cy3 (mixed)
DNA 1: AATCCGTAGAGCAGAGGTGTGTGTGGTGTTTTT
DNA 2: ACCTCTGCTCGACGGATT
modifications: none
For the molecule B2, in data set [1], the binding result is on record as “binds”.

B3: 3' 10-nt overhang DNA, Cy3 (mixed)
DNA 1: AATCCGTAGAGCAGAGGTGTGTGTGGTG
DNA 2: ACCTCTGCTCGACGGATT
modifications: none
For the molecule B3, the binding result in data set [2] was “binds”.

B4: fork DNA, 10-nt 3' overhang and 7-nt 5' overhang (mixed)
DNA 1: TTTTTTTATGTATGACAAGGAAGG
DNA 2: CCTTCCTTGTCATACATAAATTTTTTT
modifications: none
Turning to B4, in data set [3], the binding result is “binds”.
